Test results as given in US20240342199.

How the values were obtained:
[1] = target: Recombinant CypD Ser123→Ala mutant, P30405
[2] = target: Recombinant CypD Ser31/Ser123→Ala double mutant, P30405
[3] = target: Recombinant CypD Ser31→Ala mutant, P30405
[4] = target: Recombinant GST-CypD (wild type), P30405
Chain of Recombinant GST-CypD (wild type), P30405 (P30405 whole entry): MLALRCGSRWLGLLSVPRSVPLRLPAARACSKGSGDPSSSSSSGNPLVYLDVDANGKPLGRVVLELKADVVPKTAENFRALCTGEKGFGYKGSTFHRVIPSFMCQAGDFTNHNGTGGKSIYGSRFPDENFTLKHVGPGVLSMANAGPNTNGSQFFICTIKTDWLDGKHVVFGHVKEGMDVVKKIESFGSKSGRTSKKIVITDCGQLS

Chain of Recombinant CypD Ser31→Ala mutant, P30405 (P30405 whole entry, looked up, change not shown): as the sequence (P30405 whole entry) above
Chain of Recombinant CypD Ser123→Ala mutant, P30405 (P30405 whole entry, looked up, change not shown): as the sequence (P30405 whole entry) above
Chain of Recombinant CypD Ser31/Ser123→Ala double mutant, P30405 (P30405 whole entry, looked up, change not shown): as the sequence (P30405 whole entry) above

B1: active Akt2 (protein)
chain: MNEVSVIKEGWLHKRGEYIKTWRPRYFLLKSDGSFIGYKERPEAPDQTLPPLNNFSVAECQLMKTERPRPNTFVIRCLQWTTVIERTFHVDSPDEREEWMRAIQMVANSLKQRAPGEDPMDYKCGSPSDSSTTEEMEVAVSKARAKVTMNDFDYLKLLGKGTFGKVILVREKATGRYYAMKILRKEVIIAKDEVAHTVTESRVLQNTRHPFLTALKYAFQTHDRLCFVMEYANGGELFFHLSRERVFTEERARFYGAEIVSALEYLHSRDVVYRDIKLENLMLDKDGHIKITDFGLCKEGISDGATMKTFCGTPEYLAPEVLEDNDYGRAVDWWGLGVVMYEMMCGRLPFYNQDHERLFELILMEEIRFPRTLSPEAKSLLAGLLKKDPKQRLGGGPSDAKEVMEHRFFLSINWQDVVQKKLLPPFKPQVTSEVDTRYFDDEFTAQSITITPPDRYDSLGLLELDQRTHFPQFSYSASIRE
What does the source list for B1?
kinase assay with recombinant proteins, 32P-ATP, autoradiography [1]: readily phosphorylated; kinase assay with recombinant proteins, 32P-ATP, autoradiography [2]: abolished Akt phosphorylation of CypD; kinase assay with recombinant proteins, 32P-ATP, autoradiography [3]: abolished Akt phosphorylation of CypD; kinase assay with recombinant proteins, 32P-ATP, autoradiography [4]: readily phosphorylated
